Source: a protein production outcome set (Wang et al. 2014)

Experiment: label from the status in PepcDB records
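Further: failed if final PepcDB status was selected cloned or expressed and not failed if soluble or beyond.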

Sequence	protein production
MKHTLVITILIIMFSNGATAEEDKRSINESTTNMIAALQQKQWIHGSQDCKNNQDPAIEVFQYDESSYVLRQNKCLSYEAPFIYVLIGKEKILVVDTGATESAEEFPLYQTVQSLNQKHSDNGKTKEREIVVIHSHSHSDHYSADSQFVGQANVTVVAANNTGVNEFFDFEKWPEQQTNFELGGRSITIIPTPGHQEEAISVYDPQTKWLLTGDTFYPGYIYVKTWQDYKNSIARLVEFTNNHSVSAILGSHIEMTNKAGEYYEIGTIYQPNESSLLLTPSDLTALNEKLQQVDEPEKIAMDSLIVEPLGALPKLISSIAKWFIG	failed
MKIAILCASGKVGKEISKEALKRNLEPVCFVRNSSKMNEFLPQAKIVQRDLFELDSKDLIDFDIIIDAFGEWENLSLHKKHIECLSVILQGSKAKLFVVGGAGSLYMDENHTTRLMDMPDFPKEYLDIAKASAEVLEFLRNEKGFKWVYVSPSAIFSPDLPKSNHYKIIGEKFEVNANNESKISYSDYASAMIDIVLNSCYENTRIGVISL	failed
MKIAIVRLSALGDIIVSAVFLAVIKECLPNAQIEWFVDERFSAILEHSPYIDKLHPIALKSALKTLNPLKIFKLFKSLRAYEYDIIIDMQGLVKSALITQMLKAPKKVGFDYASAREGLSMFFYSQKVSIAYDEPVLKRNFTLLSHALNLPQKEISKEISESLSSRAKAFSYQPSPKIDALNLNKNKPKILFILETSKINKTYPIERFKELALILENFQICLLWHADEYKATTLYHALKHQRDVLLLPKLTLNEVKALLFKMDLIIGGDTGITHLAWALQKPSITLYGNTPMERFKLESPINVSLTGNSNANYHKKDFSIQNIEPKKIKECVLNILKEKE	failed
MKIALFGTSADPPTLAHRAILIWLAQHFDQVAVWAADNPFKQGPNPETGHWASLGDRQAMLKLLVEDVQKDYATVQIWEDLSDRRSLISLQRAQQRWGLEPDYALVVGADLIRQISQWYAVKELLPAVQLVIFPRPGYGINQADLDKLAQLGGHYQLVNQGDDQAITPPISSSIYRQIRDDDLIPDPVQSYIQQRQLYRQ	failed
MKIEQLYTGCLAEAAYYIESEGEAIIIDPLRDIQTYVQKIERNNVTLKYIFETHFHADFVSGHLDLAEATGATIVYGPKAETTFNSHIAYDGEKISIGKITLQVLHTPGHTQESSCYLLYDEDGNKHALFTGDTLFIGDVGRPDLAIKSDLTKEDLAGMLYDSLEEKIKPLPDAITIYPAHGAGSACGKNLSKETFDTLGSQKQKNYALKAADKETFIKQVLDDLQPAPSYFNMNALLNKEGPGSVSELIKQGSIAFDVQSFENLQRQTYAVLLDTRDAKEFKKGFIPGSINIGLNGQLAPWAGTLLTNSDKPILIITDPGKEEETIIRLARVGVDQVIGYLKDGYNSWQKANKPEENIETISAAELVEKLDENINILDVRKADEYEKGHLNAAQHLPLDYINDWITTLDKNKTYYVHCAGGYRSVITESILKSRNISNVIDVSGGYGAIKAAMEPTKKRWLNAFFSFMKVK	failed
MKIFNLLVGGAPENLPDNLNDFEGDWIGVDRGALKLIEMGLIPEVAVGDFDSVNDQEFKEIEANAKQVIKLDPVKDDTDTESGLKYALDHDPRAHIRVLGISGGRLDHLLANVLMVLQDRFRMFAEQIELIDRQNNIRFFNSGKHTVDKLEGFKYLSFIPLTQIDVLTLDDEKYELHNAMVSNARAYVSNEFIDSKATVYLSNGLVAVIQSKD	failed
MKIGIIGATGRAGSRILEEAKNRGHEVTAIVRNAGKITQTHKDINILQKDIFDLTLSDLSDQNVVVDAYGVSPDEAEKHVTSLDHLISVLNGTVSPRLLVVGGAASLQIDEDGNTLLESKGLREAPYYPTARAQAKQLEHLRSHQAEFSWTYISPSAMFEPGERTGDYQIGKDHLLFGSDGNSFISMEDYAIAVLDEIERPNHLNERFTVAGK	failed
MKIIGFACQWCAYQAADLAGSLKMKYPESIRLLRVPCSGRVNAEFILKALLSGADGVFVAGCPISECHYRSGNRIAKTKVALLKRLLPEFGLESGRVEFLQVSSADARKFVEFAKEFDERIRKLG	failed
MKIIIVGGGVTGSELARRLIRKKHDVVLIERDEETARHAANRLDCMVVQAAGNDTQILLDAGIKKAEAMIAVTDSDELNMIICGIADSLAPQVIKIARVRNEDYVKALNFSEERTLGINALVYPDEEAALAVIQAIEHGAVSDILSFENSSYELSRFNVCEKSTLDGLAVFDIRKYVDIPFIVVSVEQNGKNRIPSGDTILTAGTRVSILTKPEHIKRFYELSGFETQEFKKIALVGMGRIGKSIAEYLLKNSKGKSFLSKLLPINLNQKWKISIIETNDKKAKEVAAEFPEASIYKADVTDESFVDEIGLDSFDLVICTTPNYEFNMIACAYLKTLGVYKTISLVQSAVLENVAYKIGVDVAVSFKDVVVDSIMSHLVSENVTSVHTMGDGKLEIIELQVSEKSPVLGQKLKDISQHGVYLVLLVTDENGEQIPTGDTEVKAGYKIVFIVKSSRSDEIIKIFGGN	failed
MKIILFLTLIVFTSCELYHYQECVRGTTVLLKEPCPSGTYEGNSPFHPLADNKFALTCTSTHFAFACADGTRHTYQLRARSVSPKLFIRQEEVQQELYSPLFLIVAALVFLILCFTIKRKTE	not failed
MKILAIINPISGIGSKSNIPSLIADVFAHDPHELFITYSQRAGHARELAAQAVEKHYDCVIAVGGDGTVNEIAQSLRYTDVVLGIVPKGSGNGLARALKLPLTVGKALEVIRAGHVRTIDCCEADSR	failed
MKILIVSNTALGDTILSTPLFRETRLALPKAHITALLNPVNAMLFETNPYLDKIELYGGRWRGFLGAWWKLWRRGFDVALLGHSNDPQITPLCLLLGISKIIKIPNHKNPWQRFHHNPLEHHHHHH	failed
MKILKNSYESYIIAEFFKYFLITFLFFFFVFFINQILFFMRILLQNYVPFFKAFIFIIYSLPMVIALSPPFASLISVILTIHKFKLHNEILAFRSIGISIFDLLVPFFKLGIVIAFVSFISNDILLPLGSIGRLKIFNEIKEEVPHLVLKPYSSKQYGDLIFVSGEKSENGYKNVTFFDNTGLKGFDRIFMAKNLDIRKENFQVYFILNDVLSIALTDSESGFYDYFYADKMKYSIDQVTFSDSFLLNYVTPSQMSMRDVIKLIKKQNNLIADSNIKNNLEGDFLSLNFSNLYLNYLYNQNYYVDESYVFENLNYMYNLNLNFKPYQDRSMKQNLALFNLEFYQKISLPLSVLFFIFLAFSMGMYSNRKYSIILELVISIIVCVFYWVMFIGGKVYTVQYAPSPIIVTILPNLILIIAGAILFLRLLKK	failed
MKILLLGGNGFIGRRLAARLIEAGHELSAPSRVELDLARPNQDWAAWVDGVDAVANLAGAFRQGRAGGFEAIHHAGPLRLAALARAHGVRRWVQLSALGAAAHAGAPFLSSKGRGDAALLDCGMEAVVARPSLIYGADGASSRLLLRLARLPFWLLPEGGGQRIQPVAAADVAEGLQRLIEGDARGVIDFVGAAEASLADYLRQLRRLQGVGGAAWLCPVPAWLAAGLAAACGCWPGSLLNRDSLRMLRQGSTADPAAFAALLGRQPLSFRQFGEVA	failed
MKILQILSRLYVADLNPALEFYEELLETPVAMRFEIPQTGVELAQISTILLIAGSEEALKPFRNTQATFLVDSLDKFKTFLEENGAEIIRGPSKVPTGRNMTVRHSDGSVIEYVEHSKIE	not failed
MKILVFGGTRFFGKKLVERLVSEGHDVTIGTRGKTEDNFGDTVKRVVLNRESRDALFQLAKEDWDVIYDNICFSPKEALYAVDAFKGKVKRYIYTSSLSVYSQKGRALVEADFNPEHYEIVIGDKEDFDYGEGKRLAEAVFFQKASFPVVAVRFPIVLGLDDYTKRLHFHINHIKNHQEIGISNGQAEIGFITSDEAAHFLEWVGVESDLTGPVNATSNGTYALNGFIKMLEEKIGELALVEEVTDDVDDSPFGIEKTYYLDNAKATEAGFVFNDLKVWLPALVTDILKENLEHHHHHH	failed
MKIMTKTLNRTTLGLALGLASSQLLAAGFALNEQSISGMGTGFAGRSSSADDASTVFGNPAGMSRIKREQISVGAAAVIAKTDIDNGRGTFGGSNDGDMVPVVGVPMGYYVKPIDDHWAFGLGVYVPFGLVTDYEKGFAGRYWGDKSHVQIVTFQPTVSYAFNDKVSIGFGPTINRIDGELTSATLNAATPGRNDGKVKIEGDDTAIGFNAGILVQATDTTRLGLTYHSKVDYKLKGKTKIEGSGFGPFGGQKYDASLDISTPESVDFSITQQLDENWTVYAGSTWTRWSRLQDITVNNDGVPALLGGSAGPIGTITEEQNWHDTWAHAIGASYKVNKEWTLRTGFSVDQSPTNNVNRSPRIPTGDRKIISFGAGWSPTDDLTIDVAYSYLREDETKIRDSSATKGSYSADYRNTAHGLGTSVTYRF	failed
MKISEVLVKVGDGVHTLLLDRPIVRDGRKFDAPLLWMVVLMTAFGLLMIYSASVYLASKEGGDQFFYLTRQAGFVVAGLIASGFLWFLCRMRTWRRLVPWIFALSGLLLVAVLIAGREINGATRWIPLGPLNFQPTELFKLAVILYLASLFTRREEVLRSMESLGWQSIWRGTANLIMSATNPQARRETLEMYGRFRAIILPIMLVAFGLVLIMVQPDFGSFVVITVITVGMLFLAGLPWKYFFVLVGSVLGGMVLMITAAPYRVQRVVAFLDPWKDPQGAGYQLTHSLMAIGRGEWFGMGLGASLSKRGFLPEAHTDFIFAIIAEEFGFFGMCVLIFCYGWLVVRAFSIGKQSRDLGLTFNAYIASGIGIWIGIQSFFNIGVNIGALPTKGLTLPLMSYGGSSVFFMLISMMLLLRIDYENRQKMRGYRVE	failed
MKISLVTVTFNSAKTLCDTIHSVLSQSYTNIEYIIVDGLSNDETVTLIKEYEPLFQGRLKWISEKDKGLYDAMNKGIRMSTGDIVGIINSDDFYHRGDVLEKVAESFEAGETEAIYGDVRFVNPDNLDRTVRYYSSKRFVPSLFRFGFMPAHPTFFTYRKYFDQFGYYKTNYKIAADYELLVRFLYVHRLKSKYLPLDFMKMRTGGASTASIKSNILLNKEIVRACKENGIWTCYPLLLLKYLVKVFELIFIKKLEHHHHHH	not failed
MKISPSLMCMDLLKFKEQIEFIDSHADYFHIDIMDGHFVPNLTLSPFFVSQVKKLATKPLDCHLMVTRPQDYIAQLARAGADFITLHPETINGQAFRLIDEIRRHDMKVGLILNPETPVEAMKYYIHKADKITVMTVDPGFAGQPFIPEMLDKLAELKAWREREGLEYEIEVDGSCNQATYEKLMAAGADVFIVGTSGLFNHAENIDEAWRIMTAQILAAKSEVQPHAKTA	failed
MKITRQIFIYFSFLMAVALFFSCKTTEKAVKSPVTEETKKAEKTGKKSPREEFNDKLTHLSKKGDLEGILKLIDESDPELTKDFKIQYLKLSILISMRKTKEAETFADELSKAYPNNTEILYAQVMLAQAENNTQKKNQYLKKILAINPKDSRALTEQGLDFYSAKKYNDARRKFIEAYKADPKCTEALIGLGRINYLEGKLDQAEANLTAVLEQEPNNSTALAELARIKSETNRMYQALQDINRAAELEPNNPSHWNDIGSYNLTIGRKEEAKKAYDKVIELTPDSYVAYIYRAGINDELGYKEDALADYIKVCNLYPPYYFALEGAGILLWEKGDWLNAGTAFLKALNKAPGSYQYALLYAISLYKQNKKPDAKKFMQNYLKSINRTEKENEYFLCRLFIDFAGDSELINRATAETDMVKKGRLFFYLGEFYNLTKKYTLAEKCYVQVMSIENPAFFEYRFAKKAMDEFNSSNGK	failed
MKITVIVPTYRRTKDLTRCLESLEKQSRPADEVLVVVRDTDVETWQFLETIAPHSLPLHTTTVRVPGVVAAMNAGLDIAQGDIIAFTDDDAAPHSNWLAQIETHFLAHEQIAGVGGRDWVYHGDRLEDGTCPVVGQVHWFGRVIGNHHIGIGKPREVDVLKGVNMSFRRSAVHGLRFDQRMLGTGAQVHFEVAFCLALKRAGWKLIYDPQIGVNHYPAQRFDEDQRQSFNHLAVTNAVHNETLALLEHLSPTQQLTFLLWATLVGTRDSMGLIQFLRFLPSDRALAGQKLLAAWYGRWRGWRTWQSSIRFAQIKN	failed
